Results from publication PMC3958483, “Fine Specificity and Molecular Competition in SLAM Family Receptor Signalling” (PLoS ONE, 2014).

B1: c-Src Tyrosine Kinase (CSK): SH2 domain containing protein pulled down by CD244 ITSM1 (protein)
chain: MSAIQAAWPSGTECIAKYNFHGTAEQDLPFCKGDVLTIVAVTKDPNWYKAKNKVGREGIIPANYVQKREGVKAGTKLSLMPWFHGKITREQAERLLYPPETGLFLVRESTNYPGDYTLCVSCDGKVEHYRIMYHASKLSIDEEVYFENLMQLVEHYTSDADGLCTRLIKPKVMEGTVAAQDEFYRSGWALNMKELKLLQTIGKGEFGDVMLGDYRGNKVAVKCIKNDATAQAFLAEASVMTQLRHSNLVQLLGVIVEEKGGLYIVTEYMAKGSLVDYLRSRGRSVLGGDCLLKFSLDVCEAMEYLEGNNFVHRDLAARNVLVSEDNVAKVSDFGLTKEASSTQDTGKLPVKWTAPEALREKKFSTKSDVWSFGILLWEIYSFGRVPYPRIPLKDVVPRVEKGYKMDAPDGCPPAVYEVMKNCWHLDAAMRPSFLQLREQLEHIKTHELHL
B2: SHIP-2: SH2 domain containing phosphatase (protein)
chain: MASACGAPGPGGALGSQAPSWYHRDLSRAAAEELLARAGRDGSFLVRDSESVAGAFALCVLYQKHVHTYRILPDGEDFLAVQTSQGVPVRRFQTLGELIGLYAQPNQGLVCALLLPVEGEREPDPPDDRDASDGEDEKPPLPPRSGSTSISAPTGPSSPLPAPETPTAPAAESAPNGLSTVSHDYLKGSYGLDLEAVRGGASHLPHLTRTLATSCRRLHSEVDKVLSGLEILSKVFDQQSSPMVTRLLQQQNLPQTGEQELESLVLKLSVLKDFLSGIQKKALKALQDMSSTAPPAPQPSTRKAKTIPVQAFEVKLDVTLGDLTKIGKSQKFTLSVDVEGGRLVLLRRQRDSQEDWTTFTHDRIRQLIKSQRVQNKLGVVFEKEKDRTQRKDFIFVSARKREAFCQLLQLMKNKHSKQDEPDMISVFIGTWNMGSVPPPKNVTSWFTSKGLGKTLDEVTVTIPHDIYVFGTQENSVGDREWLDLLRGGLKELTDLDYRPIAMQSLWNIKVAVLVKPEHENRISHVSTSSVKTGIANTLGNKGAVGVSFMFNGTSFGFVNCHLTSGNEKTARRNQNYLDILRLLSLGDRQLNAFDISLRFTHLFWFGDLNYRLDMDIQEILNYISRKEFEPLLRVDQLNLEREKHKVFLRFSEEEISFPPTYRYERGSRDTYAWHKQKPTGVRTNVPSWCDRILWKSYPETHIICNSYGCTDDIVTSDHSPVFGTFEVGVTSQFISKKGLSKTSDQAYIEFESIEAIVKTASRTKFFIEFYSTCLEEYKKSFENDAQSSDNINFLKVQWSSRQLPTLKPILADIEYLQDQHLLLTVKSMDGYESYGECVVALKSMIGSTAQQFLTFLSHRGEETGNIRGSMKVRVPTERLGTRERLYEWISIDKDEAGAKSKAPSVSRGSQEPRSGSRKPAFTEASCPLSRLFEEPEKPPPTGRPPAPPRAAPREEPLTPRLKPEGAPEPEGVAAPPPKNSFNNPAYYVLEGVPHQLLPPEPPSPARAPVPSATKNKVAITVPAPQLGHHRHPRVGEGSSSDEESGGTLPPPDFPPPPLPDSAIFLPPSLDPLPGPVVRGRGGAEARGPPPPKAHPRPPLPPGPSPASTFLGEVASGDDRSCSVLQMAKTLSEVDYAPAGPARSALLPGPLELQPPRGLPSDYGRPLSFPPPRIRESIQEDLAEEAPCLQGGRASGLGEAGMSAWLRAIGLERYEEGLVHNGWDDLEFLSDITEEDLEEAGVQDPAHKRLLLDTLQLSK
B3: SHIP-1: SH2 domain containing phosphatase (protein)
chain: MVPCWNHGNITRSKAEELLSRTGKDGSFLVRASESISRAYALCVLYRNCVYTYRILPNEDDKFTVQASEGVSMRFFTKLDQLIEFYKKENMGLVTHLQYPVPLEEEDTGDDPEEDTVESVVSPPELPPRNIPLTASSCEAKEVPFSNENPRATETSRPSLSETLFQRLQSMDTSGLPEEHLKAIQDYLSTQLAQDSEFVKTGSSSLPHLKKLTTLLCKELYGEVIRTLPSLESLQRLFDQQLSPGLRPRPQVPGEANPINMVSKLSQLTSLLSSIEDKVKALLHEGPESPHRPSLIPPVTFEVKAESLGIPQKMQLKVDVESGKLIIKKSKDGSEDKFYSHKKILQLIKSQKFLNKLVILVETEKEKILRKEYVFADSKKREGFCQLLQQMKNKHSEQPEPDMITIFIGTWNMGNAPPPKKITSWFLSKGQGKTRDDSADYIPHDIYVIGTQEDPLSEKEWLEILKHSLQEITSVTFKTVAIHTLWNIRIVVLAKPEHENRISHICTDNVKTGIANTLGNKGAVGVSFMFNGTSLGFVNSHLTSGSEKKLRRNQNYMNILRFLALGDKKLSPFNITHRFTHLFWFGDLNYRVDLPTWEAETIIQKIKQQQYADLLSHDQLLTERREQKVFLHFEEEEITFAPTYRFERLTRDKYAYTKQKATGMKYNLPSWCDRVLWKSYPLVHVVCQSYGSTSDIMTSDHSPVFATFEAGVTSQFVSKNGPGTVDSQGQIEFLRCYATLKTKSQTKFYLEFHSSCLESFVKSQEGENEEGSEGELVVKFGETLPKLKPIISDPEYLLDQHILISIKSSDSDESYGEGCIALRLEATETQLPIYTPLTHHGELTGHFQGEIKLQTSQGKTREKLYDFVKTERDESSGPKTLKSLTSHDPMKQWEVTSRAPPCSGSSITEIINPNYMGVGPFGPPMPLHVKQTLSPDQQPTAWSYDQPPKDSPLGPCRGESPPTPPGQPPISPKKFLPSTANRGLPPRTQESRPSDLGKNAGDTLPQEDLPLTKPEMFENPLYGSLSSFPKPAPRKDQESPKMPRKEPPPCPEPGILSPSIVLTKAQEADRGEGPGKQVPAPRLRSFTCSSSAEGRAAGGDKSQGKPKTPVSSQAPVPAKRPIKPSRSEINQQTPPTPTPRPPLPVKSPAVLHLQHSKGRDYRDNTELPHHGKHRPEEGPPGPLGRTAMQ
B4: EAT-2: small SH2 domain containing adapter protein (protein)
chain: MDLPYYHGRLTKQDCETLLLKEGVDGNFLLRDSESIPGVLCLCVSFKNIVYTYRIFREKHGYYRIQTAEGSPKQVFPSLKELISKFEKPNQGMVVHLLKPIKRTSPSLRWRGLKLELETFVNSNSDYVDVLP
modifications: left off: His tag, end not stated, state not stated
notes: small SH2 domain containing adapter protein
B5: SAP: small SH2 domain containing adapter protein (protein, UniProt O60880 1-128, looked up)
SH2 domain-containing protein …: MDAVAVYHGKISRETGEKLLLATGLDGSYLLRDSESVPGVYCLCVLYHGYIYTYRVSQTETGSWSAETAPGVHKRYFRKIKNLISAFQKPDQGIVIPLQYPVEKKSSARSTQGTTGIREDPDVCLKAP

How the values were obtained:
[1] = Pull-down with phosphorylated CD244 ITSM1 from NK cell lysates, LC-MS/MS; type: binding; settings: human NK cell lysates; compared with control phosphopeptide SHIP-1 Y865
Description: For pull-down of associated proteins, streptavidin Sepharose (GE Healthcare) was pre-coated with saturating amounts of peptide or EAT-2. NK92 cells (4×10^8) were treated with 500 μM pervanadate for 15 minutes, then lysed in PBS, 1% Triton X-100, 1 mM sodium orthovanadate in the presence of mammalian protease inhibitor solution (Sigma). Lysates were pre-cleared by centrifugation, followed by incubation with streptavidin Sepharose. Peptide or EAT-2-coated streptavidin beads were incubated with NK92 lysates for 2 hours at 4°C with rotation. Beads were washed once with 15 ml ice cold PBS/1% (v/v) Triton X-100. Bound protein was eluted using 100 mM glycine-HCl pH 2.5.
Protein samples were prepared for mass spectrometry as described previously. Briefly, eluted proteins were spun onto the membranes of Vivacon 500 filters (10,000 MWCO – Sartorius). Membranes were washed once with PBS then proteins were denatured with 8 M urea, reduced with 10 mM DTT in 25 mM ammonium bicarbonate buffer, followed by alkylation with 50 mM iodoacetamide. Proteins were then digested overnight with trypsin. Tryptic peptides were then eluted from the membrane and analyzed on an Ultimate 3000 HPLC-coupled Orbitrap XL mass spectrometer. Proteins were identified by liquid chromatography-coupled tandem mass-spectrometry (LC-MS/MS). Raw data files were converted to mzXML format using ReADW (v. 4.2.1) and submitted to the Central Proteomics Facilities Pipeline for database comparison and peptide identification. Searching against the International Protein Index (IPI) human protein sequence database for protein identification, protein and peptide hits were statistically validated by applying a 1% false discovery rate (FDR) by searching against a concatenated target/decoy database. Datasets were searched with variable peptide modifications for phosphotyrosine, phosphoserine, phosphothreonine, oxidation of methionine and deamination.
Protein identification data were exported into ProteinCenter (v3.8.3013 – Thermo Fisher) for filtering and annotation. Results were filtered to remove any proteins with less than 3 unique peptides, less than 10 percent sequence coverage, or median protein probability scores less than 0.5. To establish sample specificity, any protein with at least 10-fold greater sequence coverage in one sample compared with the other was considered to be specific for that sample.
Similarly, differences in specificity of inhibitory SH2 domain containing proteins for ITSMs are relevant to understanding mechanisms of inhibition by ITSMs. We focused on CD244 ITSMs to establish general paradigms.

[2] = target: T1, EAT-2 (Homo sapiens, UniProt O14796); experiment: EAT-2 expression in NK92 after RNA interference; type: cell-based; settings: shRNA, NK92 cells; from 0.44 μM
T1 sequence (O14796 1-132): B4 chain
Description: Lentiviral constructs expressing gene-specific shRNAs in vector pLKO.1 were obtained from Open Biosystems. […] As a non-targeting control, the hairpin sequence 5′-[…] was expressed in pLKO.1. Lentiviral particles were produced through polyethylenimine (PEI-Sigma) co-transfection of 293 T cells with pLKO.1 along with packaging vectors pMD2.G and pSPAX2 (Addgene; Didier Trono Laboratory). Virus was produced in RPMI 1640/10% heat-inactivated FCS for 48–72 hours. Viral supernatants were collected and NK92 cells were transduced twice overnight in the presence of 1000 U/ml IL-2. Cells with stable shRNA expression were selected using 3 μg/ml puromycin (Invitrogen) for 72 hours prior to use in functional assays.
For quantitation of protein expression, NK92 cell lysates were prepared using buffer (150 mM NaCl, 20 mM Tris-HCl pH 7.4, 10% glycerol, 2 mM EDTA, 10 mM NaF, 1 mM PMSF) containing 0.5% Triton X-100. Lysates were resolved by SDS-PAGE under reducing conditions using Novex gradient gels and transferred to nitrocellulose membranes for western blotting by standard protocols. […] SHP-2 levels in 10^5 cell equivalents were analysed in a similar manner with recombinant SHP-2 N+C as a standard (25, 50 and 100 ng) and anti-SHP-2 (Cell Signaling #3752). […] Quantitation of protein expression was performed using LI-COR Odyssey Sa software version 1.0. […]

Molecule | pull-down by CD244 ITSM1 [1] | intracellular EAT-2 concentration after 50% knockdown [2]
B1 | pulled down by the ITSM peptide | –
B2 | pulled down by the ITSM peptide | –
B3 | pulled down by the ITSM peptide | –
B4 | identifying SAP and EAT-2 | approximately 0.2 μM
B5 | identifying SAP and EAT-2 | –
